Experimental data taken from the supplement of paper PMC9170038.

System: K4 kissing-loop RNA reporter
Experiment: apparent KD of K4 kissing-loop reporter; higher = weaker reporter binding
Settings: Eterna round: R107
Protocol: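 RNA-MaP round R107: designed RNA switches with theophylline, tryptophan, arginine or FMN aptamers are transcribed on-chip within common flanks. They are titrated with a labelled K4 kissing-loop RNA reporter in RNA-MaP buffer (100 mM Tris pH 7.5, 80 mM KCl, 4 mM MgCl2), without ligand or with the indicated ligand. Median apparent KD per design.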

[1] = input ligand: theophylline 20 uM
[2] = input ligand: tryptophan 2.4 mM
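Also: bound reporter read as fluorescence of individual clusters on recovered sequencing chips by microscopy, with normalized cluster intensities fitted with a binding model.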

| Sequence | apparent KD of K4 kissing-loop reporter (input ligand: FMN 200 uM) [nM] | apparent KD of K4 kissing-loop reporter (input ligand: arginine 13.2 mM) [nM] | apparent KD of K4 kissing-loop reporter (input ligand: none) [nM] | apparent KD of K4 kissing-loop reporter [1] [nM] | apparent KD of K4 kissing-loop reporter [2] [nM] |
| --- | --- | --- | --- | --- | --- |
| UGGACGUUAUACAAAUAGUAUAACUGGGAUACCAGUGACGAAAGUCACCCUUGGCAGCUCAACUGCCAGUGAUGUUGGUAGUCCA [Astros-Eli-mod#4] | 307 | 158 | 172 | 239 | 145 |
| UCACUUAAAAGAAAUAGAAAUUCUAGAGAUACCAGCGACACUCUUCGCCCUUGGCAGCUCAAGUGGGACCCAGUGAUGUUGGGCG [Xeceteza] | 426 | 289 | 413 | 269 | 324 |
| GGAUCCUAGGCGGCCGCCACUCCAUCGUACCGAAAGGUAUGAUACCGAGUGAUGUUCGGUUGGAGGAGGACCGGGCCUAGGAUCC [#2 Exclusion - Tryptophan B Attempt #3 (HarryS)] | 147 | 112 | 124 | 127 | 112 |
| AAAGUUGAUGAGUUGGGUAUGUGUUCCGAAGGAGCGAGAUUUAUCUCAGGUAGGUCGCGGAACUUGAGUGAUGUUCAUGUAUAAA [KL-XArg-A9 #analogue] | 356 | 408 | 491 | 637 | 305 |
| GUUCCCUACAAGGAUACCAGAACGUGUAGUCCGAGCGCUAGUGAUGUUGGCGUCUACCUCUUCCCUUGGCAGCCUGCAAAUCAGU [theeternabot_sameState_KL_Theo_B_48] | 269 | 155 | 236 | 217 | 200 |
| GUGUGUGUCGGAGGAUAUGCGAUAGAUGUAGGAGAAUUAGUGAUGUUAGUUAUGGUAGAGAUAGGAGUAGAAGGUUGGUGUGUGU [RHig 3/7 B] | 440 | 413 | 484 | 572 | 428 |
| AAGCCAGUGAUGUUGGCAAAAUUUACUGAAGGAGCGCGUGAAAACGCAGGUAGGUCGCAGAACCUUGCCAACUAACACGAAAGUG [Ex Arginine A K4 20] | 261 | 237 | 253 | 469 | 251 |
| AGUGAUGUGGGAAGGAGCGCUACAUGACUUCAGUGAUGUUGAAGUGAUGAUUUAGUGAUGUAGCAGGUAGGUCGCCUAGAUGUUA [KL-XARG-B8] | 98.3 | 41.2 | 77.2 | 77.5 | 62.5 |
| GAUUGUGAUGGAAACAUCGCAAUCUCUGAAGGAGCGCGUGAAAACGCAGGUAGGUCGCAGGACGACAAAGACAGUGAUGUUGUCG [Ex Arginine A K4 2] | 446 | 424 | 554 | 504 | 416 |
| CGUGGUGCCAAAGGAUAUCAUGCUAACGCGGUUGAGUGAUGUUCGACCCGAGAUAAGAGUGGGCAUUGAGAAGGUUGCGCAGAAG [theeternabot_sameState_KL_FMN_B_10] | 149 | 125 | 139 | 124 | 145 |
| CAUACUUGCCGACCGCGGCACGCUAGUGAUACCAGUAACACCGUCUACCCUUGGCAGCACGAGAGAGUGAUGUUUUCAGCAGCCA [theeternabot_sameState_KL_Theo_A_3] | 1030 | 722 | 982 | 736 | 857 |
| UGACUGGACUGAAGGAGCGUUGAAGGAGCGUAAGCAGUGAUGUUGCUUACAGGUAGGUCGCAGCAGGUAGGUCGCAGUCUAGUCU [ArgBS 28 #DoubleAptamer #SwitchBubble] | 134 | 102 | 122 | 115 | 122 |
| UACUUAUAGUUAUUUCUACAUUUAUUUAGUCAGGAUAUCGAUUAGUCGAGAAGGGACAAUAUCAAGUGAUGUUUGAUAAUUCAAA [JR_ExcFMNA_Sub012] | 89.9 | 161 | 119 | 158 | 84.9 |
| UAAGUAAGGGAUGAUACCAGAGAGUGAUGUUCUCAAGCGCUAUAGGAUAGCCUUAUCCACCUCCCUUGGCAGCAUACCCACUGGG [theeternabot_exclusion_KL_Theo_B_13] | 333 | 311 | 355 | 346 | 340 |
| UUUAUUAAGACGGCCGCCACUGAUUCAGAGUGAUGUUCUGAUAAAAUUUUAGAUAAUAAUAACAGCAGGACCGGGUCAAUUAUUA [JR_SSTryptoB_Sub014] | 211 | 211 | 238 | 219 | 208 |
| ACAGUCGGCUGUGAUACCAGUCGUAUAACAACAUGUUGCAGUGAUGUUGCGAGAUAGGAUGACCCUUGGCAGCACUCAGUACGAC [Same State Theophylline B GF11] | 324 | 101 | 248 | 328 | 150 |
| CGUGAAGCCCAGAGGUGAUGUAUAGUAUCGCGAGGACCGGUACGGCCGCCACUCGUGAAGAGAAAGGAGUGAUGUUCCGUAAUGG | 480 | 380 | 595 | 406 | 165 |
| GGAUAGGACAGAGGAUAUGGAGAGUCUACAAAGUAGGCUCAUAAUCCUUGAAUGGAAGUGAUGUUUCUAGAAGGCUGUCCUAUCG [FmnBX 18 - #SwitchBubble #StaticStem #Palindromic] | 758 | 135 | 143 | 148 | 136 |
| GACACUCGGUGAUAAUAACCGUUACGCGAUACCAGCGUAACAGUACGCCCUUGGCAGCGCAGUGAUGUUGCGUGCCGAGUGUGAA [Theo A Ex Mod of Esbiceve] | 180 | 170 | 172 | 170 | 163 |
| UUAGAUGAUUCAUCAAGAUUGAUGAGCAAACGAGGACCGGUACGGCCGCCACUCGAGUGAUGUUCGAGAAGCUCAUCAAUCAAUU [AK4.2 EXC Tryptophan A] | 166 | 120 | 139 | 127 | 370 |
| GAUGGCAUGCGAGGAUAUUGUACGGAGUGAUGUUCCCAUUAUCCAGGUAUUCGAUUGACGAGUAUCCAAGAAGGCGCAUGCCAUC | 248 | 121 | 136 | 115 | 138 |
| CAGACCACAGAGUGAUGUUCUGUGUCCGAAGGAGCGCGCGAGAGCGCAGGUAGGUCGCGGAUACAGUUGACGUACCUUCAAGACA [Arg A Ex t3] | 193 | 179 | 205 | 230 | 219 |

| Sequence | apparent KD of K4 kissing-loop reporter (input ligand: FMN 200 uM) [nM] | apparent KD of K4 kissing-loop reporter (input ligand: arginine 13.2 mM) [nM] | apparent KD of K4 kissing-loop reporter (input ligand: none) [nM] | apparent KD of K4 kissing-loop reporter [1] [nM] | apparent KD of K4 kissing-loop reporter [2] [nM] |
| --- | --- | --- | --- | --- | --- |
| AAAUAGGAGUAAAUAAACAAUUUCCUUAGAGAGGAUAUUGGUAAUACAAGAAGGCUCUGUUGGGAGUGAUGUUCCCAUAACGCCU [Exclusion FMN A GF13] | 58.3 | 66.6 | 56.6 | 65.9 | 56.7 |
| AGUGAAGUUAGUGAUGUGUGAGUUUGGGAAGGAGCGCCGAGGAAGGCAGGUAGGUCGCCCAGUGAUGUUGGUGUAAAGAUGAGAG [whbob_Ex_Arginine_A_2t122] | 308 | 135 | 158 | 254 | 231 |
| CUUCGUAAAGGCCCAGUGAUGUUGGGCACUCGAGGACCGGUACGGCCGCCACUCGCUCCCUAAGUCGCGUGCGUGGGCCACCGCC [Anala] | 115 | 97 | 99.1 | 94.5 | 104 |
| CCUAUCUCAUACGAUACCAGUGAAUUUAUAUUUAUAAGCAGUGAUGUUGCAUUCCAAGUACACCCUUGGCAGCGUAUGGGAUAGG [Ex Theophylline B K4 21] | 197 | 203 | 213 | 168 | 161 |
| GAUACACUUUCAGGUAUCCAGUGACUGGAUACCAGCAUGGAAACAUGCCCUUGGCAGCCAGAACUGGAAGUGAUGUUUCCAGUAA [Design7] | 215 | 166 | 195 | 214 | 199 |
| CGGUUUGGUUGAGAGGUUGGGCCGAAUGAUACCAGUAUAUAAGAAUACCCUUGGCAGCAUAAGAAAGAUAUAGUGAUGUUGUAUA [SSTheophA.J] | 475 | 537 | 495 | 513 | 507 |
| GGAUAGGAUAGAGGAUAUGGGCUAGGCAAGAAUAACUUGUCUAGUAAAUCCAUGAGGAGUGAUGUUCCAGAAGGCUGUCCUAUCG [MatMod 2 - Jieux - Exclusion - FMN B] | 286 | 166 | 324 | 182 | 247 |
| GAUAAUAGCACGGCCGCCACUGAAAAGCCGUGCUAUACGAGUGAUGUUCGUAAUUAUACGGGAUUCAGGACCGGGUGCAACGGUA [Tryp B SS t1] | 122 | 115 | 139 | 158 | 98.1 |
| ACCUUAUUUGCCAGUGAUGUUGGACAGGAAGGAGCGGGCAUAAGCCCAGGUAGGUCGCCUGUCAACUUUCUUAUAGCCCAAAGGU [KL-XArg-A18] | 308 | 253 | 396 | 314 | 294 |
| GGAUAGGAUAGAGGAUAUGGUAUAUGCAAGAAUAACUUAUCGUGUAAAUCCAUAGGGAGUGAUGUUCCAGAAGGCUGUCCUAUCG [MatMod 11 - Jieux - Exclusion - FMN B] | 921 | 244 | 308 | 324 | 229 |
| AAUUUUAAUAAUAAAUAAUAAAUAAAUGAUACCAGUAUUUUUUUUUACCCUUGGCAGCAUAUAUAAGGGCAGUGAUGUUGCCAAA [Same State - Theophylline A] | 145 | 85.2 | 119 | 111 | 131 |
| GCUAGCAUGGCAGGAUAUAGCUAUAGGAGUGAUGUUCCUUGGUAGGUGAGUGAUGUUCACUACCAACUAGAAGGGCCAUGCUAGC | 148 | 116 | 125 | 121 | 135 |
| UUUAUAGUGACGGCCGCCACUAUAUUAAUGUUUAGGUUAGAGUGAUGUUUUGAUUAAUAUUUUUAUAGGACCGGGUUAUAUGUUU [ggbvmullin] | 669 | 488 | 632 | 515 | 591 |
| UGACAUUGCUCAGAUACCAGACUUGAGGAUCACCCAGGUGCCAAACGUACAAUAAUAAAAGUCCCUUGGCAGCUGAGCAAUGUCU [TheoBX 14] | 65.7 | 51.7 | 30.2 | 69.9 | 55.3 |
| AAGAAGGUCAAAGACCUUCGUGCACGUGAUACCAGUCGCGAAAGCGACCCUUGGCAGCACGGCAGUGAUGUUGCCAAGUGCACAA [#12 K4 Theophylline A Same State] | 407 | 249 | 498 | 664 | 545 |
| CUGACGCUGAUACGGUGGCCGGUGGUCGUGCGAGGACCGGUACGGCCGCCACUCGCAUGAGUGAUGUUCAUGUGUCGUCGUCGUC [#05 K4 Tryptophan A Exclusion] | 116 | 95.9 | 114 | 90.2 | 123 |
| GCAUUGAGUGAUGUUUAAGCUUAGUCAUCACGAGGACCGGUACGGCCGCCACUCGUGCUUGGAGCGACCGAUACCCUAGAGACCC [theeternabot_sameState_KL_Trp_A_27] | 160 | 62.5 | 61.7 | 247 | 193 |
| UUUGUAUCGGGAAGGAGCGUGAAUGAUAAUGGAUAUAGUGAUGUUAUAUAUAAGAACGAAUCACAGGUAGGUCGCCCGGAUGACU [SSArgB.P] | 546 | 566 | 648 | 586 | 678 |
| AACCAGCUUACUGUAAGCUGGUUGCUGGAUACCAGCUCGGAAACGAGCCCUUGGCAGCCAGAACUUGCAGUGAUGUUGCAAGUAA [Design11] | 150 | 178 | 157 | 120 | 216 |
| AGAUUCGGCACGGCCGCCACUUCCGGUGGCUGGUGUCAUGGUGCGCGUGAGUGAUGUUUAUGUGGGAGGACCGGGUGUUGAGUCU [whbob_Ex_Tryp_B_w43] | 974 | 411 | 898 | 592 | 603 |
| UUUGGUAGCGGUGUUGAUUAGGGAGCGGAAGGAGCGCCGAGGAGGGCAGGUAGGUCGCCGGAAUGUAGUGAUGUUGCAUAGAGGU [ExArgA.Ab] | 269 | 227 | 253 | 574 | 214 |
